{
  "source": "patent US20080138334A1",
  "about": "“Immune-Derived Moieties Reactive Against Bioactive Lipids, and Methods of Making and Using Same” (priority 2006, published 2008)",
  "molecules": {"B1": {"name": "anti-S1P mAb: murine IgG1 kappa monoclonal antibody against S1P from hybridoma clone 306D326.26 (ATCC SD-5362) (antibody, V domains shown)", "VH": "QAHLQQSDAELVKPGASVKISCKVSGFIFIDHTIHWMKQRPEQGLEWIGCISPRHDITKYNEMFRGKATLTADKSSTTAYIQVNSLTFEDSAVYFCARGGFYGSTIWFDFWGQGTTLTVS", "VL": "ETTVTQSPASLSMAIGEKVTIRCITTTDIDDDMNWFQQKPGEPPNLLISEGNILRPGVPSRFSSSGYGTDFLFTIENMLSEDVADYYCLQSDNLPFTFGSGTKLEIK"}},
  "key": {"[1]": {"assay": "Direct ELISA, chimeric antibody and mutants binding to S1P", "settings": "for Binding: antibody concentration 0.1 ug/ml, S1P-coated plate", "experimental": "Microtiter ELISA plates (Costar) were coated overnight with S1P diluted in 1 M Carbonate Buffer (pH 9.5) at 37° C. for 1 hr. Plates were washed with PBS (137 mM NaCl, 2.68 mM KCl, 10.1 mM Na2HPO4, 1.76 mM KH2PO4; pH 7.4) and blocked with PBS/BSA/Tween-20 for 1 hr at room temp or overnight at 4° C. For the primary incubation (1 hr at room temp.), a standard curve using the anti-S1P mAb and the samples to be tested for binding was built using the following set of dilutions: 0.4 μg/mL, 0.2 μg/mL, 0.1 μg/mL, 0.05 μg/mL, 0.0125 μg/mL, and 0 μg/mL, and 100 μl added to each well. Plates were washed and incubated with 100 μl per well of HRP conjugated goat anti-mouse (1:20,000 dilution) (Jackson Immuno Research) or HRP conjugated goat anti-human (H+L) diluted 1:50,000 (Jackson Immuno Research) for 1 hr at room temperature. After washing, the enzymatic reaction was detected with tetramethylbenzidine (Sigma) and stopped by adding 1 M H2SO4. The optical density (OD) was measured at 450 nm using a Thermo Multiskan EX. Raw data were transferred to GraphPad software for analysis.\nThe chromogenic reaction was measured and reported as Optical density (OD). The concentration of the panel of antibodies was 0.1 ug/ml. No interaction of the second antibody with S1P-coated matrix alone was detected."}, "Caki-1 cells": {"test_system": "Caki-1 cells", "assay": "In vitro IL-8 production, ELISA of culture supernatants", "type": "cell-based, human", "settings": "18:1 LPA (0.2 mM), 24h, non-treated cells", "experimental": "Three anti-LPA mAbs (B3, B7 and B58) were tested for their abilities to reduce in vitro IL-8 production compared to a non-specific antibody (NS). Caki-1 cells were seeded in 96 well plates and grown to confluency. After overnight serum starvation, cells were treated with 18:1 LPA (0.2 mM) with or without anti-LPA mAb B3, B7, B58 or NS (Non-Specific). After 24h, cultured supernatants of renal cancer cells (Caki-1), treated with or without LPA and in presence of increasing concentrations of the anti-LPA mAbs B3, B7 and B58, were collected and analyzed for IL-8 levels using a commercially available ELISA kit (Human Quantikine Kit, R&D Systems, Minneapolis, Minn.). […] Similar results were obtained with the other well-known pro-angiogenic factor, VEGF. The inhibition of IL-8 release by the anti-LPA mAbs was also observed in other cancerous cell lines such as the pancreatic cell line Panc-1."}, "[2]": {"assay": "Competitive ELISA for cross reactivity of anti-S1P mAb, competitor SPC", "type": "binding", "settings": "competitor SPC (free phosphate linked with a choline)", "experimental": "(§1) Screening of serum and cell supernatant for S1P-specific antibodies was by direct ELISA using the thiolated S1P analog described in Example 1 (i.e., compound 10) as the antigen. A standard ELISA was performed, as described below, except that 50 ul of sample (serum or cell supernatant) was diluted with an equal volume of PBS/0.1% Tween-20 (PBST) during the primary incubation. ELISAs were performed in 96-well high binding ELISA plates (Costar) coated with 0.1 μg of chemically-synthesized compound 10 conjugated to BSA in binding buffer (33.6 mM Na2CO3, 100 mM NaHCO3; pH 9.5). The thiolated-S1P-BSA was incubated at 37° C. for 1 hr. at 4° C. overnight in the ELISA plate wells. The plates were then washed four times with PBS (137 mM NaCl, 2.68 mM KCl, 10.14 mM Na2HPO4, 1.76 mM KH2PO4; pH 7.4) and blocked with PBST for 1 hr. at room temperature. For the primary incubation step, 75 uL of the sample (containing the S1P to be measured), was incubated with 25 uL of 0.1 ug/mL anti-S1P mAb diluted in PBST and added to a well of the ELISA plate. […] Optical density of the samples was determined by measurement at 450 nm using an EL- X-800 ELISA plate reader (Bio-Tech).\n(§2) For cross reactivity, a competitive ELISA was performed as described above, except for the following alterations (FIG. 4). […] Biotin incorporation was determined as per kit protocol and ranged from 7 to II biotin molecules per antibody. […]"}, "[3]": {"assay": "Competitive ELISA for cross reactivity of anti-S1P mAb, competitor C1P", "type": "binding", "settings": "C1P (amino group esterified to a fatty acid)", "experimental": "as §1, §2"}, "[4]": {"assay": "BIAcore binding kinetics of anti-S1P mAb to immobilized S1P", "settings": "depending on monovalent or bivalent binding model, read-out: affinity of the monoclonal antibody to S1P", "experimental": "Binding kinetics: The binding kinetics of S1P to its receptor or other moieties has, traditionally, been problematic because of the nature of lipids. Many problems have been associated with the insolubility of lipids. For BIAcore measurements, these problems were overcome by directly immobilizing S1P to a BIAcore chip. Antibody was then flowed over the surface of the chip and alterations in […] were measured to determine the binding characteristics of the antibody to S1P. To circumvent the bivalent binding nature of antibodies, S1P was coated on the chip at low densities. Additionally, the chip was coated with various densities of S1P (7, 20, and 1000 RU) and antibody binding data was globally fit to a 1:1 interaction model."}, "[5]": {"assay": "ELISA with exchanged crosslinker or protein carrier in the laydown material", "type": "binding", "excerpt": "For example, the normal crosslinker SMCC was exchanged for IOA in conjugating the thiolated-S1P to BSA as the laydown material in the ELISA. […] Similarly, KLH was exchanged for BSA as the protein that was complexed with thiolated-S1P as the laydown material."}, "[6]": {"assay": "Competitive ELISA for cross reactivity of anti-S1P mAb, competitor S1P", "type": "binding", "experimental": "as §1, §2"}, "[7]": {"assay": "Competitive ELISA for cross reactivity of anti-S1P mAb, competitor LPA", "type": "binding", "settings": "LPA (glycerol backbone)", "experimental": "as §1, §2"}, "[8]": {"assay": "Competitive ELISA for cross reactivity of anti-S1P mAb, competitor DH-S1P", "type": "binding", "experimental": "as §1, §2"}},
  "note": "“Also recorded” adds a separate entry of the source. Read-outs that look alike come from different tables or passages of the source.",
  "data": [
    {"molecule": "CysPhe", "values": [
      {"measurement": "binding to S1P compared with the chimeric antibody", "setting": "[1]; ELISA, substitution of Cys at position 50 of heavy chain", "value": "did not alter the binding"},
      {"measurement": "Binding", "setting": "[1]", "value": 2, "unit": "OD"}
    ]},
    {"molecule": "MetLeu", "values": [
      {"measurement": "Binding", "setting": "[1]", "value": 1.6, "unit": "OD"}
    ]},
    {"molecule": "lysophosphatidic acid [LPA]", "values": [
      {"measurement": "increase of the expression of IL-8", "setting": "Caki-1 cells", "value": 100, "unit": "%"}
    ]},
    {"molecule": "B1", "values": [
      {"measurement": "competition for the mAb binding to S1P on the plate", "setting": "[2]", "value": "somewhat reduced; also recorded: only slightly competes for binding"},
      {"measurement": "antibody binding", "setting": "[3]", "value": "no antibody binding was observed"},
      {"measurement": "Kd", "setting": "[4]; lower end", "value": "~0.088", "unit": "nM"},
      {"measurement": "Kd", "setting": "[4]; upper end", "value": "~99", "unit": "nM"},
      {"measurement": "binding characteristics versus BSA laydown", "setting": "[5]; KLH exchanged for BSA as protein", "value": "no significant difference"},
      {"measurement": "binding characteristics versus BSA-SMCC-thiolated-S1P laydown", "setting": "[5]; SMCC exchanged for IOA", "value": "nearly identical"},
      {"measurement": "distinction of thiolated-S1P analog (compound 10) from natural S1P", "setting": "[6]; competition experiment", "value": "unable to distinguish"},
      {"measurement": "competition for the mAb binding to S1P on the plate", "setting": "[6]; competitor free S1P", "value": "can compete for binding"},
      {"measurement": "antibody binding", "setting": "[7]", "value": "no binding"},
      {"measurement": "competition for the mAb binding to S1P on the plate", "setting": "[8]", "value": "can compete for binding"}
    ]}
  ]
}
